The source of these data is patent publication US20150283275A1 (MorphoSys, published 2015).

For assay [1], the target named is T1, Human CD38 (human, UniProt P28907 1-300). The experiment in a line: cell-based or functional assay.
For assay [2], the target named is T1, Human CD38. The experiment in a line: cell binding assay, apparently on OPM2 myeloma cells (method cited from Huber et al 2003).

B1: ^213Bi-anti-CD38-MAb (antibody, V domains shown)
VH: QVQLVESGGGLVQPGGSLRLSCAASGFTFSSYYMNWVRQAPGKGLEWVSGISGDPSNTYYADSVKGRFTISRDNSKNTLYLQMNSLRAEDTAVYYCARDLPLVYTGFAYWGQGTLVTVSS
VL: DIELTQPPSVSVAPGQTARISCSGDNLRHYYVYWYQQKPGQAPVLVIYGDSKRPSGIPERFSGSNSGNTATLTISGTQAEDEADYYCQTYTGGASLVFGGGTKLTVLG
Take B1: the “γH2AX foci per cell (DNA double-strand breaks) 0.5 h after treatment, OPM2 cells compared to ARH77 cells” value with Human CD38 [1] was roughly 2.5 fold.

B2: CHX-A″-DPTA-anti-CD38-MAb (antibody, V domains shown)
VH: B1 VH
VL: B1 VL
notes: Anti-CD38-MAb MOR03087 (= MOR202) covalently coupled to SCN-CHX-A″-DTPA; also called Chelated anti-CD38-MAb; CHX-A″-DTPA conjugate of MOR03087 (MOR202)
The EC50 is the midpoint of the concentration-response curve. For B2, the EC50 in the assay with Human CD38 [2] turned out to be 16.4 nM.
